# Assays:
# Experiment in all cases: SEC-MALS; SEC-LS: size exclusion chromatography coupled light scattering, Agilent MDS system, Agilent BioSEC 5 1000 Å or GE Superdex 200 column; detector offsets calibrated with BSA, concentrations by refractive index
# [1] = target: Dg_(GH172a) (HMPREF9455_02467), DUF2961 family GH172 exo-D-arabinofuranosidase from Dysgonomonas gadei (Dysgonomonas gadei) (UniProt F5IZF0)
# [2] = target: Dg_(GH172b) (HMPREF9455_02471), DUF2961 family GH172 exo-D-arabinofuranosidase from Dysgonomonas gadei (Dysgonomonas gadei) (UniProt F5IZF4)
# [3] = target: Dg_(GH172c) (HMPREF9455_02479), DUF2961 family GH172 exo-D-arabinofuranosidase from Dysgonomonas gadei (Dysgonomonas gadei) (UniProt F5IZG2)
# [4] = target: Myc_(GH172) (GII36_05205), DUF2961 homolog from Candidatus Mycosynbacter amalyticus (Candidatus Mycosynbacter amalyticus)
# [5] = target: the molecule itself
molecule,measurement,setting,value
"Dg_(GH172a) (HMPREF9455_02467), DUF2961 family GH172 exo-D-arabinofuranosidase from Dysgonomonas gadei (from UniProt F5IZF0 1-386) (enzyme)",stoichiometry N,[1],12
"Dg_(GH172b) (HMPREF9455_02471), DUF2961 family GH172 exo-D-arabinofuranosidase from Dysgonomonas gadei (from UniProt F5IZF4 1-643) (enzyme)",stoichiometry N,[2],2
"Dg_(GH172c) (HMPREF9455_02479), DUF2961 family GH172 exo-D-arabinofuranosidase from Dysgonomonas gadei (from UniProt F5IZG2 1-402) (enzyme)",stoichiometry N,[3],6
"Myc_(GH172) (GII36_05205), DUF2961 homolog from Candidatus Mycosynbacter amalyticus (enzyme)",stoichiometry N,[4],3
"Noc_(GH172) (O3I_017420), DUF2961 family GH172 enzyme from Nocardia brasiliensis (enzyme, UniProt K0EX55 1-342, looked up, O3I_017420, DUF2961 homologue, Nocardia brasiliensis; codon-optimized gene bought from Twist Biosciences; also called GH172Noc; source: E. coli BL21-DE3, purified (IMAC, size exclusion chromatography)) MTPPRRSELWLLDDTRTRSVSAENPTGAPGGGARATTGTGAHAARLLGPGWKISPSIVLGDGETATLADVSGPGVLRHCWLTTDRAALRELTLRMYWDDAAEPAIDVPLGDFFCNGWDELALVDSEMVVVAPAGGLNSYWPMPFRRRARITLENHCGRSVPVYYQITYGEEDVPGEAGYLHARWSRSAPLGSPAVHTLLDTGPARGRYVGTYLAIRPGAPRWWGEGEMKFYLDGDDEYPTLCGTGTEDYFGGAWNFDMDGKYRTYSTAYLGLPQALPADEIYQAHQRFGMYRWHVHDPICFHRELRVTVQGLGWRDSDTYLPLEDAEIATTVWWYQEVPPSG",stoichiometry N,[5],3
